The values that follow are results of earlier work, collected in paper PMC5325457.

This data set addresses Mms2 (Homo sapiens) (UniProt Q15819).
Sequence of UniProt Q15819 (Q15819 2-145): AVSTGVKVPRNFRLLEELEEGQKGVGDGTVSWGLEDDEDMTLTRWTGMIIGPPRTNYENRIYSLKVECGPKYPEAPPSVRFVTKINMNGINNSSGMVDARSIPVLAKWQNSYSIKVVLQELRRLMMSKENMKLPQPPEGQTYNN

On to Ubc13 (from UniProt P61088), for which the Kd is 49 nM.

Usually Kd stands for the free concentration of one partner at which half of the binding sites on the other are occupied at equilibrium, for simple one-to-one binding.
